From paper PMC8908738

Assays:
thrombin [1] = target: T1, thrombin (UniProt P00734;P00734 328-363;364-622); experiment: competitive hybridization, CD of DNA origami chiral plasmonic probe; 170 nM thrombin, n=7-11 bp at aptamer 5' end; R2=0.94 (below the authors' 0.95 validity threshold); Binding buffer, pH and temperature not given in the material shown; origami assembled in TE with 20 mM MgCl2 and 5 mM NaCl; thrombin 170 nM
thrombin [2] = target: T1, thrombin; experiment: competitive hybridization, CD of DNA origami chiral plasmonic probe; 170 nM thrombin, n=7-11 bp at aptamer 3' end; R2=0.97; Binding buffer, pH and temperature not given in the material shown; origami assembled in TE with 20 mM MgCl2 and 5 mM NaCl; thrombin 170 nM

| Binder | Kd (thrombin [1]) [nM] | Kd (thrombin [2]) [nM] |
| --- | --- | --- |
| CTAGCGAGCGAACTTTGGTTGGTGTGGTTGG (structured_DNA) [thrombin DNA aptamer, 5' bridge lock (complement hybridizes at aptamer 5' end)] | 235 |  |
| GGTTGGTGTGGTTGGTTTAGAGTGAGCAGAG (structured_DNA) [thrombin DNA aptamer, 3' bridge lock (complement hybridizes at aptamer 3' end)] |  | 46.7 |
